We go through six molecules from patent publication US6548282B2, “Phytase and gene encoding said phytase” (priority 1996, dated 2003).

As usually defined, the Km is the concentration of substrate that gives half-maximal velocity.

The test system of data set [1] is wheat bran-derived phytase. The following applies: Agr. Biol. Chem., 26, 794-803 (1962); read-out: Michaelis constant (Km); cited from earlier work.
Data set [2] has as its system rice bran-derived phytase. Particulars: Agr. Biol. Chem., 53, 1475-1483; read-out: Michaelis constant (Km); cited from earlier work.
The subject of data set [3] is maize (Zea mays)-derived phytase. Particulars: read-out: Michaelis constant (Km); cited from earlier work.
For data set [4], the system named is Aspergillus ficcum-derived phytase. Particulars: WO 91/05053; read-out: Michaelis constant (Km); cited from earlier work.
The subject of data set [5] is Aspergillus oryzae-derived phytase. The following applies: read-out: Michaelis constant (Km); cited from earlier work.
Data set [6] concerns Bacillus subtilis-derived phytase. The following applies: read-out: Michaelis constant (Km); cited from earlier work.
The test system of data set [7] is Bacillus natto-derived phytase. Particulars: read-out: Michaelis constant (Km); cited from earlier work.
For data set [8], the system named is Escherichia coli-derived phytase. The following applies: read-out: Michaelis constant (Km); cited from earlier work.
Substrate in data set [9]: O=P(O)(O)O[C@H]1[C@H](OP(=O)(O)O)[C@@H](OP(=O)(O)O)[C@H](OP(=O)(O)O)[C@@H](OP(=O)(O)O)[C@H]1OP(=O)(O)O
In words: Km of novel phytase from Aspergillus niger SK57 (standard assay, Lineweaver-Burk plot). The following applies: other: sodium phytate 0.00625 to 1.25 mM, pH 5.5, 37° C. In kind it is biochemical. On the procedure: (§1) 0.5 ml of 0.2 M acetate buffer, pH 5.5 (sodium acetate) containing 2.5 mM sodium phytate (Sigma) is maintained at 37° C. for 5 minutes, and 0.5 ml of an enzyme solution is added to initiate the reaction. After maintained at 37° C. for 10 minutes, 2 ml of a stop solution of enzyme reaction (i.e., mixture of 1:1:2 10 mM ammonium molybdate, 5 N sulfuric acid and acetone) is added to stop the reaction, and 0.1 ml of 1 M citric acid is further added and mixed. The absorbance of this solution is determined at 380 nm on a spectrophotometer (Hitachi U-2000). One unit of phytase activity is defined as the amount of enzyme allowing to release 1 μmol inorganic phosphorus for 1 minute at pH 5.5 at 37° C.
(§2) The Km value of the novel phytase can be determined by the Lineweaver-Burk plot in which the activity of the novel phytase, as determined by the standard assay, is plotted at varying concentrations of the substrate.
(§3) (1) Km value: The activity was determined according to the standard assay where the substrate concentration was varied in the range of 0.00625 to 1.25 mM. The results were graphted out in Lineweave-Burk plot so that Km values were determined.

Substrate in data set [10]: O=P(O)(O)O[C@H]1[C@H](OP(=O)(O)O)[C@@H](OP(=O)(O)O)[C@H](OP(=O)(O)O)[C@@H](OP(=O)(O)O)[C@H]1OP(=O)(O)O
The experiment in a line: Km of novel phytase from transformant Aspergillus niger MH-PA1 (standard assay, Lineweaver-Burk plot). In kind it is biochemical. Particulars: other: sodium phytate 0.00625 to 1.25 mM, pH 5.5, 37° C. The procedure:
as §1, §2, §3

Substrate in data set [11]: O=P(O)(O)O[C@H]1[C@H](OP(=O)(O)O)[C@@H](OP(=O)(O)O)[C@H](OP(=O)(O)O)[C@@H](OP(=O)(O)O)[C@H]1OP(=O)(O)O
The experiment in a line: Km of novel phytase from transformant Aspergillus nidulans M-PA1 (standard assay, Lineweaver-Burk plot). The format is biochemical. The following applies: other: sodium phytate 0.00625 to 1.25 mM, pH 5.5, 37° C. On the procedure: as §1, §2, §3

Data set [12] in a line: Specific activity of purified phytase, standard assay. In kind it is biochemical. The following applies: after purification; pH 5.5, 37° C. The procedure:
as §1
Ten g of the crude phytase powder obtained in Example 6-2 was dissolved in 50 ml of acetate buffer A [50 mM acetic acid/50 mM sodium acetate (pH 5.5)] and then desalted through an Ultrafilter (cut off molecular weight 10,000; Sartrius). The resulting enzyme solution was applied to a DIAION HPA-75 (Mitsubishi Corporation) column (5.6 cm×30 cm) previously equilibrated with acetate buffer A. After washed with acetate buffer A, novel phytase was eluted with acetate buffer B [50 mM acetic acid/50 mM sodium acetate (pH 4.8)] containing 0.3 M NaCl. […]

A short description of data set [13]: Substrate specificity, standard assay. The format is biochemical. On the procedure: as §1
(7) Substrate specificity: The activity was determined by the standard assay method wherein the concentration of substrates was adjusted at 1 mM and 10 mM.

Substrate in data set [14]: O=P(O)(O)O[C@H]1[C@H](OP(=O)(O)O)[C@@H](OP(=O)(O)O)[C@H](OP(=O)(O)O)[C@@H](OP(=O)(O)O)[C@H]1OP(=O)(O)O
In words: Km of novel phytase from transformant Aspergillus oryzae MO-PG3 (standard assay, Lineweaver-Burk plot). In kind it is biochemical. The following applies: other: sodium phytate 0.00625 to 1.25 mM, pH 5.5, 37° C. On the procedure:
as §1, §2, §3

Consider `O=P(O)(O)O[C@H]1[C@H](OP(=O)(O)O)[C@@H](OP(=O)(O)O)[C@H](OP(=O)(O)O)[C@@H](OP(=O)(O)O)[C@H]1OP(=O)(O)O` [phytic acid], for which the Km in data set [1] was 570 µM; in data set [2] it was 170 µM; in [3], 117 µM; in [4], 250 µM; in data set [5] it was 330 µM; in data set [6] it was 150 µM. Further, the Km was 500 µM in data set [7] and 130 µM in data set [8].

B1: novel phytase derived from Aspergillus niger SK57, SEQ ID NO:1 (Aspergillus niger CBS 513.88) (protein)
chain: SRNQSTCDTVDQGYQCFSETSHLWGQYAPFFSLANKSAISPDVPAGCHVTFAQVLSRHGARYPTDSKGKKYSALIEEIQQNATTFEGKYAFLKTYNYSLGADDLTPFGEQELVNSGVKFYQRYESLTRNIVPFIRSSGSSRVIASGNKFIEGFQSTKLKDPRAQPGQSSPKIDVVISEASTSNNTLDPGTCTVFEDSELADDIEANFTATFVPSIRQRLENDLSGVSLTDTEVTYLMDMCSFDTISTSTVDTKLSPFCDLFTHEEWINYDYLQSLNKYYGHGAGNPLGPTQGVGYANELIARLTHSPVHDDTSSNHTLDSNPATFPLNSTLYADFSHDNGIISILFALGLYNGTKPLSSTTAENITQTDGFSSAWTVPFASRMYVEMMQCQSEQEPLVRVLVNDRVVPLHGCPVDALGRCTRDSFVKGLSFARSGGDWGECFA
With B1, in data set [9], the Km was determined as 13 µM.

B2: novel phytase (SK57 gene, pANPHY1) derived from Aspergillus niger MH-PA1 (Aspergillus niger CBS 513.88) (protein)
chain: B1 chain
notes: secreted, mature, purified
On to B2, for which the Km in data set [10] came to 30 µM.

B3: novel phytase (SK57 gene, pANPHY1) derived from Aspergillus nidulans M-PA1 (Aspergillus niger CBS 513.88) (protein)
chain: B1 chain
notes: secreted, mature, purified, glycosylated
Consider B3, for which the Km in [11] was 20 µM.

B4: novel phytase from Aspergillus niger SK57: Phytase purified from wheat bran culture of Aspergillus niger SK57 (FERM BP-5473); amino acid sequence SEQ ID NO:1 (protein)
chain: B1 chain
As to B4, the specific activity in [12] was 158 U/mg. Further, the “Relative activity (100%)” value in [13] (substrate ATP 1 mM) was determined as 1.6%; in data set [13] (substrate ATP 10 mM), 1.2%; in [13] (substrate D-glucose-6-phosphate 1 mM), 0.45%; in data set [13] (substrate D-glucose-6-phosphate 10 mM), 4.2%; in data set [13] (substrate D-myo-inositol 1,4,5-tris-phosphate 1 mM), 0.71%; in [13] (substrate D-myo-inositol 1,4,5-tris-phosphate 10 mM), 5.8%. Also, the “Relative activity (100%)” value in data set [13] (substrate fructose-6-phosphate 1 mM) worked out at 0.15%; in data set [13] (substrate fructose-6-phosphate 10 mM), 0.93%; in data set [13] (substrate glycerophosphoric acid 1 mM), 0.11%; in data set [13] (substrate glycerophosphoric acid 10 mM), 0.96%; in [13] (substrate p-nitrophenyl phosphate 1 mM), 1.9%; in [13] (substrate p-nitrophenyl phosphate 10 mM), 10%. Further, in data set [13] (substrate phytic acid 1 mM), the “Relative activity (100%)” value was determined as 100%. Besides, the “substrate specificity (in words)” value in data set [13] (substrates of Table 1 at 1 mM and 10 mM) was “acted with low specificity on the substrates shown in Table 1, but it had less activity on substrates other than phytic acid”.

B5: novel phytase (SK57 gene, pANPHY1) derived from Aspergillus oryzae MO-PG3 (Aspergillus niger CBS 513.88) (protein)
chain: B1 chain
notes: as for B3
For B5, the Km in data set [14] turned out to be 28 µM.
